Test results from patent US7579150B1, “Mobile RNA acts as a signal to regulate plant growth and development” (Iowa State University Research Foundation, Inc., priority 2004, dated 2009).

Legend:
[1] = target: T1, StBEL-05 in pBridge (GAL4 DNA-binding domain fusion) (Solanum tuberosum); assay: yeast two-hybrid, reciprocal orientation
T1 construct: Range derived as for m2

[2] = target: T2, GAD protein alone (GAL4 activation domain) (UniProt P04386 768-881, limits assumed); assay: immunoprecipitation of in vitro translated 35S-labelled proteins with anti-GAD antibodies
T2 construct: domain: GAD; Negative control of the immunoprecipitation assay
T2 sequence (looked up): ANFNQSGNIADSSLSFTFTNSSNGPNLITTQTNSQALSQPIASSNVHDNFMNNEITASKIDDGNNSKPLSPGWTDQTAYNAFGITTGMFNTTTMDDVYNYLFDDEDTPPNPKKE
Protocol: (§1) In vitro binding experiments were performed as described by Ni et al., "PIF3, a Phytochrome-Interacting Factor Necessary for Normal Photoinduced Signal Transduction, is a Novel Basic Helix-Loop-Helix Protein," *Cell* 95:657-667 (1998), which is hereby incorporated by reference in its entirety. The full-length sequence for POTH1 was cloned into a pET17b/GAD fusion cassette and transcribed under the control of the T7 promoter. The BEL cDNAs were cloned into pGEM11Z vectors and were transcribed under the control of the T7 promoter. ^35S-methionine labeled bait and prey proteins were synthesized using the TnT in vitro transcription-translation kit (Promega) according to the manufacturer's protocols. Each 50 µl TnT reaction contained 2.0 µg of template plasmid DNA and […] (20 µCi) of labeled ^35S-methionine. The POTH1:GAD/BEL complex was immunoprecipitated with anti-GAD antibodies (Santa Cruz Biotechnology, CA). The proteins from the pellet (one-half the fraction) and for the prey (one-fourth of the reaction volume) were resolved on a 10% SDS-PAGE gel and visualized by autoradiography.

[3] = target: T3, GAD:POTH1 fusion protein (full-length POTH1 fused to the GAL4 activation domain) (Solanum tuberosum, 35S-methionine labelled (in vitro translation)); assay: immunoprecipitation of in vitro transcribed/translated proteins
T3 construct: In vitro transcribed/translated bait of the immunoprecipitation assay; no 35S label there; also called POTH1:GAD
T3 chain: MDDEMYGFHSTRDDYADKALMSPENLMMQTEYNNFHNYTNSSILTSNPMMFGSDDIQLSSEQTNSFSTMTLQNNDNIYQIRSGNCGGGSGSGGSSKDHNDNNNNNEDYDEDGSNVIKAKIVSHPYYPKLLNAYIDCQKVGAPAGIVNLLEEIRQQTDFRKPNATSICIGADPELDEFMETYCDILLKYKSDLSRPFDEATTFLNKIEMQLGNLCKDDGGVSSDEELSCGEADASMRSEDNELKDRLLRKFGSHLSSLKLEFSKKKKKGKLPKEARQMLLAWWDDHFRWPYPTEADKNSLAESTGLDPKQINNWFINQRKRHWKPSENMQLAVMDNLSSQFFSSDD
Protocol: as §1

[4] = tested on: StBEL-05; assay: Yeast two-hybrid interaction of POTH1 deletion constructs with StBEL-05; format: cell-based, potato; conditions: yeast strain AH109
From the text: The Matchmaker two-hybrid system (Clontech, CA) was used for the yeast two-hybrid screen. Yeast transformation and plasmid rescue into DH5-a E. coli cells were according to the manufacturer's instructions. Full-length POTH1 was cloned into the pBridge (Clontech, CA) vector and used as bait to screen the potato (S. tuberosum ‘Desireé’) stolon cDNA library in pAD-GAL4-2.1 (Stratagene, Calif.). Positive interactions were confirmed by cotransforming yeast strain AH109 with each purified pAD plasmid and pBridge: POTH1 and plating on -leucine/-tryptophan (transformation control) and -leucine/-tryptophan/-histidine/-adenine (selection) nutrient medium. Induction of the AH109 reporter gene, lacZ, was measured with a yeast β-galactosidase assay kit (Pierce Chemicals). β-galactosidase activity (FIG. 9B) was determined from a known density of yeast cells and calculated as 1000×OD420/time of color reaction (minutes)×volume of yeast culture (ml)×OD600.
The StBEL-05 deletion constructs were amplified by PCR, then cloned into the vector, pGAD, in-frame with the GAL4 activation domain. POTH1 deletion constructs were amplified by PCR, and cloned into pBridge (Clontech) in-frame with the GAL4 binding domain. Sequencing of selected cDNAs and constructs was performed at the Iowa State University DNA Facility. […]

[5] = target: T3, GAD:POTH1 fusion protein (full-length …); assay: co-immunoprecipitation of in vitro translated 35S-labelled proteins with anti-GAD antibodies, SDS-PAGE and autoradiography
Protocol: as §1

Chain of StBEL-05 (as listed by the source): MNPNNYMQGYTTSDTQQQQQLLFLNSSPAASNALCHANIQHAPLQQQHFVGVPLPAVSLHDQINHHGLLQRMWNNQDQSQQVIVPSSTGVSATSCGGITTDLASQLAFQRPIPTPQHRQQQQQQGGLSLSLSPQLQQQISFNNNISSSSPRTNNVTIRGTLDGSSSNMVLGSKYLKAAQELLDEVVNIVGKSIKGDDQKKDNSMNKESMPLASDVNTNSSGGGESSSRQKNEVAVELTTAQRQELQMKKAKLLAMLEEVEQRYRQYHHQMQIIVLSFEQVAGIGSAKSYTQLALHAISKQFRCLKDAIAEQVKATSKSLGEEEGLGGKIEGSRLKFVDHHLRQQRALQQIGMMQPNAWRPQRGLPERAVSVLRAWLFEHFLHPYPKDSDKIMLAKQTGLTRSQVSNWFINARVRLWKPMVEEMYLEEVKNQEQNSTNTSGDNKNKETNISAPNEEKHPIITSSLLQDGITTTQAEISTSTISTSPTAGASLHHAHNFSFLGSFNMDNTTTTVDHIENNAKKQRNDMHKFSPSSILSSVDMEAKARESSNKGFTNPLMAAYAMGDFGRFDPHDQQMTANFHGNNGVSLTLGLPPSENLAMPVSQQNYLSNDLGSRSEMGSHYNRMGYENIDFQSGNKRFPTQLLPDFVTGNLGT

B1: pBHD9 construct (first 114 aa of POTH1) cloned into the pGAD vector (GAL4 activation domain fusion) (other, not shown: large carriers)
chain: MDDEMYGFHSTRDDYADKALMSPENLMMQTEYNNFHNYTNSSILTSNPMMFGSDDIQLSSEQTNSFSTMTLQNNDNIYQIRSGNCGGGSGSGGSSKDHNDNNNNNEDYDEDGSN
notes: also called pBDH9 construct in pGAD
B1: no binding [1].

B2: StBEL-13 protein synthesized in vitro from pGEM11Z (other)
chain: MVMGGGASSQQLGYAKNHTPNVAESMQLFLMNPQPRSPSPSPPNSTSSTLHMLLPNPSSTSTLQGFPNPAEGSFGQFITWGNGGASAATATHHLNAQNEIGGVNVVESQGLSLSLSSSLQHKAEELQMSGEAGGMMFFNQGGSSTSGQYRYKNLNMGGSGVSPNIHQVHVGYGSSLGVVNVLRNSKYAKAAQELLEEFCSVGRGKLKKTNNKAAANNPNTNPSGANNEASSKDVPTLSAADRIEHQRRKVKLLSMVDEVDRRYNHYCEQMQMVVNSFDLVMGFGTAVPYTALAQKAMSRHFRCLKDAIGAQLKQSCELLGEKDAGNSGLTKGETPRLKMLEQSLRQQRAFHQMGMMEQEAWRPQRGLPERSVNILRAWLFEHFLHPYPSDADKHLLARQTGLSRNQVSNWFINARVRLWKPMVEDMYQQEAKDEDGDGDEKSQSQNSGNNIIAQTPTPNSLTNTSSTNMTTTTAPTTTTALAAAETGTAATPITVTSSKRSQINATDSDPSLVAINSFSENQATFPTNIHDPDDCRRGNLSGDDGTTTHDHMGSTMIRFGTTAGDVSLTLGLRHAGNLPENTHFFG
modifications: 35S-methionine labelled (in vitro translation)
notes: BEL cDNA cloned into pGEM11Z under the T7 promoter; also called p11Z-13
B2: no binding [2]; binds [3].

B3: pBHD-9: POTH1 construct: first amino-terminal 114 aa, no KNOX domain sequence; transcriptional activator alone (protein)
chain: MKLLSSIEQACDICRLKKLKCSKEKPKCAKCLKNNWECRYSPKTKRSPLTRAHLTEVESRLERLEQLFLLIFPREDLDMILKMDSLQDIKALLTGLFVQDNVNKDAVTDRLASVETDMPLTLRQHRISATSSSEESSNKGQRQLTVSMDDEMYGFHSTRDDYADKALMSPENLMMQTEYNNFHNYTNSSILTSNPMMFGSDDIQLSSEQTNSFSTMTLQNNDNIYQIRSGNCGGGSGSGGSSKDHNDNNNNNEDYDEDGSN
In the case of B3, the “interaction with StBEL-05” value [4] is reported as “Interaction with StBEL-05 was observed”.

B4: StBEL-30 protein synthesized in vitro from pGEM11Z (other)
chain: MATYFPSPNNQRDADQTFQYFRQSLPESYSEASNAPENMMVFMNYSSSGAYSDMLTGTSQQQHNCIDIPSIGATPFNTSQQEILSNLGGSQMGIQDFSSWRDSRNEMLADNVFQVAQNVQGQGLSLSLGSNIPSGIGISHVQSQNPNQGGGFNMSFGDGDNSQPKEQRNADYFPPDNPGRDLDAMKGYNSPYGTSSIARTIPSSKYLKAAQYLLDEVVSVRKAIKEQNSKKELTKDSRESDVDSKNISSDTPANGGSNPHESKNNQSELSPTEKQEVQNKLAKLLSMLDEIDRRYRQYYHQMQIVVSSFDVVAGEGAAKPYTALALQTISRHFRCLRDAICDQIRASRRSLGEQDASENSKAIGISRLRFVDHHIRQQRALQQLGMMQQHAWRPQRGLPESSVSVLRAWLFEHFLHPYPKDSDKIMLARQTGLTRSQVSNWFINARVRLWKPMVEEMYKEEAGDAKIDSNSSSDVAPRLATKDSKVEERGELHQNAASEFEQYNSGQILESKSNHEADVEMEGASNAETQSQSGMENQTGEPLPAMDNCTLFQDAFVQSNDRFSEFGSFGSGNVLPNGVSLTLGLQQGEGSNLPMSIETHVSYVPLRADDMYSTAPTTMVPETAEFNCLDSGNRQQPFWLLPSAT
modifications: 35S-methionine labelled (in vitro translation)
notes: BEL cDNA cloned into pGEM11Z under the T7 promoter; also called p11Z-30
B4: binds [5]; no binding [2].
